pKd: −log10 of the molar value.
What was measured:
[1] = biological target: soluble domain of Arabidopsis thaliana cytochrome c1 (Arabidopsis thaliana) (UniProt Q9FKS5); assay: SPR; SPRi; Cc1 immobilised by direct amine coupling on a CS SPRi-Biochip (10 and 15 uM drops); WT or Y48pCMF Cc flowed at 2.5 to 10 uM, 50 uL/min; 298 K; 10 mM sodium phosphate buffer pH 6.5; reference spots with rabbit serum albumin subtracted; 1:1 binding model
[2] = biological target: soluble domain of Arabidopsis thaliana cytochrome c1 (Arabidopsis thaliana) (UniProt Q9FKS5)
Target sequence in this assay (Q9FKS5 64-265): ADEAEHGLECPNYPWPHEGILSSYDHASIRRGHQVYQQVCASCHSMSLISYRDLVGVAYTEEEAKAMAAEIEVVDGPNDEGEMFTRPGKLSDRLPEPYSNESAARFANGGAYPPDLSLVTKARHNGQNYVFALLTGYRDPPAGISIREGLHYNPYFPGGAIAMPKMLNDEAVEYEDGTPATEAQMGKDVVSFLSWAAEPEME

[3] = biological target: soluble domain of Arabidopsis thaliana cytochrome c1 (Arabidopsis thaliana) (UniProt Q9FKS5); assay: single-molecule force spectroscopy (AFM); Cc1 anchored on Au(111); Cc (E104C) anchored to the silicon AFM tip through a PEG27 linker; retraction at 1 um/s; 50 mM phosphate buffer pH 6.5; room temperature
Target sequence in this assay (Q9FKS5 64-265): as above

[4] = biological target: soluble domain of Arabidopsis thaliana cytochrome c1 (Arabidopsis thaliana) (UniProt Q9FKS5); assay: dynamic force spectroscopy (AFM); Cc1 anchored on Au(111); Cc (E104C) anchored directly to Au-coated AFM tips by thiol-Au; retraction velocities 0.5 to 4 um/s; 50 mM phosphate buffer pH 6.5; Bell-Evans model
Target sequence in this assay (Q9FKS5 64-265): as above

Y48pCMF cytochrome c E104C, sequence (P99999 1-48, stated change not applied): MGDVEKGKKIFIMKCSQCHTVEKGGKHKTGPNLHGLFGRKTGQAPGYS

Row | Substance | pKd [1] | koff [1] | kon [1] | conductance of current blinks (EC-STM static break junction, bias 0.8 V, 50 mM phosphate buffer pH 6.5), Gaussian fit of the main peak [2] | unbinding force Fr, centre of the Gaussian fit [3] | unbinding force Fr, mean [3] | rate of force-activated unbinding k^ou (Bell-Evans model) [4]
1 | Y48pCMF cytochrome c (from UniProt P99999 1-105) (natural protein) | 6.45 | 0.00358 s⁻¹ | 10000 M⁻¹ s⁻¹ | – | – | – | –
2 | Y48pCMF cytochrome c E104C (from UniProt P99999 1-105) (natural protein) | – | – | – | 7.4e-06 G0 | 77 pN | 91 pN | 48 s⁻¹
